Tests used:
Experiment in all cases: cell-based or functional assay
FGF Receptor 1 = target: FGF Receptor 1
FGF Receptor 2 = target: FGF Receptor 2
FGF Receptor 3 = target: FGF Receptor 3

Measured: JNK activation (Western, anti-active JNK), lowest active concentration

Sequence of FGF Receptor 3 (P22607 23-806): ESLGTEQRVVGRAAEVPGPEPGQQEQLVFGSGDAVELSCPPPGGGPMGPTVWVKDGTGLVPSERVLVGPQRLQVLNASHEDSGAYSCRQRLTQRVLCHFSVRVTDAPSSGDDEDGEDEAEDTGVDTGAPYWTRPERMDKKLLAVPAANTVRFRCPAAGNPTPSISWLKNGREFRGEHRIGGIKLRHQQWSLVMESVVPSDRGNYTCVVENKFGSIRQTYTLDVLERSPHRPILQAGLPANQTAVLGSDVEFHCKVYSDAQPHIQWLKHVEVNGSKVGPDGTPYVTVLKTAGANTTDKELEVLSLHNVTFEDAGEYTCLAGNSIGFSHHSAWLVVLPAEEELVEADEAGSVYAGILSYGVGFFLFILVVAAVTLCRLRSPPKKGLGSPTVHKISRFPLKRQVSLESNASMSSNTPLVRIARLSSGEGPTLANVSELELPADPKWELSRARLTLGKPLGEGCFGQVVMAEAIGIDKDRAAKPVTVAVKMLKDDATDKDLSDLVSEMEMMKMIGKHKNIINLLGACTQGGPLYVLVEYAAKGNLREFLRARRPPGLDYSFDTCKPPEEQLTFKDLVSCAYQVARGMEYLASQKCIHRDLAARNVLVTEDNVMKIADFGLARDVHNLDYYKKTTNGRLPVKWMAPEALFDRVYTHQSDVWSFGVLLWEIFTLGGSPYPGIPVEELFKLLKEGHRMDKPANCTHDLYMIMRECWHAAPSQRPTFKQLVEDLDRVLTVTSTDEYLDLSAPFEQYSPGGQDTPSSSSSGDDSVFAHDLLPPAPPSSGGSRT

wild type FGF-9 (ligand)
< 12.5 ng/mL: all assays above
